The text below walks through data of publication PMC4576209, “Biochemical characterization of FIKK8 – A unique protein kinase from the malaria parasite Plasmodium falciparum and other apicomplexans” (Molecular and Biochemical Parasitology, 2015).

Broadly, the Km is the substrate concentration at which the rate is half of its maximum. For orientation: kcat means the number of substrate molecules converted per active site and unit of time at saturation. For orientation: kcat/Km means the second-order rate constant that governs catalysis at low substrate concentration.

Substrate in the series: Nc1ncnc2c1ncn2[C@@H]1O[C@H](COP(=O)(O)OP(=O)(O)OP(=O)(O)O)[C@@H](O)[C@H]1O
Nature of the series: LDH-PK coupled kinase assay. The format is biochemical, Cryptosporidium parvum. The settings on record: peptide substrate; MgCl2 stated only for autophosphorylation.

B1: CpFIKKd (Cryptosporidium parvum Iowa II) (protein)
chain: GKNDKVCYTWKEAKQLISKLKSSTKLYKFNGVPFSDWAHEKIPTLGASPTSCRVQEMFKSRIYLEKNNEVYATLFIKKIPRNIWSKQWEMHEIWDGDYVTDGEDFVMEAAALAFLQNHSVGIAPRLYAILEHCEDNCNDINSNKESKIQYRNIANRNACDYLLSKDTTHIILVSEHYGEDLLDYLDKCEKKNRNLTDKEKKELQYKLALALNNLHSKGLCHLDFTPENILIGPNGINICDFAKSTPIITKNPRHTHYSRKSPKNHLSENFNSNNTSFNFINPPPEAYCEFESCEPTVGKGAYMPPECWKIFWRLEENKIQFPLEELMDIDTYNRRSNYSYFNEFSRIHNKSPIKCQDRSMFYFNTRIADIYMLGIIMFWIWSDGGIWKYSDTRQDHRYQNLVFSDINFDVFRECRGWNKQLKSLLKKMLEPDPNKRITMSEILSDPWWKCPLDE
notes: kinase domain plus N-terminal extension (38 or more residues); E. coli
With B1, the Km was found to be 48.0 ± 0.9 µM, the kcat amounted to 1.3 ± 0.0083 s⁻¹ and the kcat/Km is 26700 M⁻¹ s⁻¹.
